Test results: paper PMC10917784 (Nature Communications, 2024)

Columns and labels:
Conditions in all cases: one partner purified
CD38 on tumor cell lines [1] = molecular target: T1, CD38 on tumor cell lines (Homo sapiens, UniProt P28907); test: flow cytometry on cells; Raji cells, increasing antibody concentrations, 4 °C, 30 min, labelled anti-human IgG secondary; Kd from fit of RFI
T1 construct: CD38 on the surface of CD38high (Daudi, Raji) and CD38low (NCI-H929, KMS-12-BM) cell lines; source: endogenous, on Daudi, Raji, NCI-H929 and KMS-12-BM cells

CD38 on tumor cell lines [2] = molecular target: T1, CD38 on tumor cell lines; test: flow cytometry on cells; NCI-H929 cells, increasing antibody concentrations, 4 °C, 30 min, labelled anti-human IgG secondary; Kd from fit of RFI
CD38 on tumor cell lines [3] = molecular target: T1, CD38 on tumor cell lines; test: flow cytometry on cells; Daudi cells, increasing antibody concentrations, 4 °C, 30 min, labelled anti-human IgG secondary; Kd from fit of RFI
CD38 on tumor cell lines [4] = molecular target: T1, CD38 on tumor cell lines; test: flow cytometry on cells; KMS-12-BM cells, increasing antibody concentrations, 4 °C, 30 min, labelled anti-human IgG secondary; Kd from fit of RFI

B1: daratumumab (antibody, V domains shown)
VH: EVQLLESGGGLVQPGGSLRLSCAVSGFTFNSFAMSWVRQAPGKGLEWVSAISGSGGGTYYADSVKGRFTISRDNSKNTLYLQMNSLRAEDTAVYFCAKDKILWFGEPVFDYWGQGTLVTVSS
VL: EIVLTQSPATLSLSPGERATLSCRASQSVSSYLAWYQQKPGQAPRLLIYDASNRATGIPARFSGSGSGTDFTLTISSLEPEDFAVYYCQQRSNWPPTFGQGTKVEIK
notes: whole antibody in the assay; the PDB entry holds only part of it; also called Darzalex; source: bought: Janssen Biotech Inc
Kd (CD38 on tumor cell lines [1]): 0.33 nM | Kd (CD38 on tumor cell lines [2]): 0.506 nM | Kd (CD38 on tumor cell lines [3]): 0.258 nM | Kd (CD38 on tumor cell lines [4]): 0.138 nM
